Experimental data as given in patent publication US20240076396A1 (Regeneron, published 2024).

Columns and labels:
[1] = biological target: T1, Jurkat/hCD20 cells (human CD20, no GITR; negative control cell line) (human, UniProt P11836 1-297); experiment: flow cytometry on Jurkat/hCD20 control cells; max MFI over secondary antibody alone
T1 construct: whole, on cells; Control cell line without engineered GITR; the only named engineered protein on it is hCD20
T1 sequence (looked up): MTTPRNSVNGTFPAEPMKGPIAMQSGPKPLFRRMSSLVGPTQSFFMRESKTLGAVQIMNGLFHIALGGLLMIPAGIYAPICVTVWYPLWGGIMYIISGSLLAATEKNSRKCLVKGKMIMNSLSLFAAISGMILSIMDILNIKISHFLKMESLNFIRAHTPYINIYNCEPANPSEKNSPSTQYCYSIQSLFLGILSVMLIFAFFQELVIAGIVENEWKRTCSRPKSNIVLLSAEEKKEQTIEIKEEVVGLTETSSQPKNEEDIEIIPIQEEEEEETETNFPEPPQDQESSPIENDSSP
Procedure: (§1) Flow cytometry was used to evaluate mAb1 binding to Jurkat/hCD20/hGITR cells and Jurkat/hCD20/MfGITR cells. Jurkat/hCD20 cells were used as a negative control cell line for GITR binding. Cells were added to a 96-well V-bottom plate (2×10⁵ to 4×10⁵ cells/well) and incubated in Fc block solution, followed by successive incubation on ice with primary antibody (mAb1 or IgG1 isotype control) at final concentrations ranging from 18 pM to 300 nM and a secondary antibody (AF647-conjugated anti-human IgG) at 5 μg/mL. Cells were then stained with LIVE/DEAD Fixable Green Dead Cell Stain according to the manufacturer's instructions. […] Data were analyzed with Flow.lo software. For EC₅₀ (effective concentration at 50% activity) determinations, measured geometric MFI values were analyzed using a 4-parameter logistic equation over a 9-point response curve with GraphPad Prism. The fold binding was determined by taking the ratio of the highest MFI on the curve to the MFI of the wells containing secondary antibody only.
^a The maximum MFI was the highest mean MFI value within the concentration range tested (18 pM to 300 nM). ^b Fold binding was calculated as the maximum MFI above background (secondary antibody alone). h, Human; Mf, Macaca fascicularis (cynomolgus monkey); ND, Not determined because concentration-dependent binding was not observed

[2] = biological target: T2, hGITR.mmH (soluble monomeric recombinant human GITR ectodomain protein) (human); experiment: blocking ELISA: 1.5 nM hGITR.mmH pre-incubated with antibody, binding to plate-coated hGITR-L
T2 construct: also called monomeric human GITR
T2 chain: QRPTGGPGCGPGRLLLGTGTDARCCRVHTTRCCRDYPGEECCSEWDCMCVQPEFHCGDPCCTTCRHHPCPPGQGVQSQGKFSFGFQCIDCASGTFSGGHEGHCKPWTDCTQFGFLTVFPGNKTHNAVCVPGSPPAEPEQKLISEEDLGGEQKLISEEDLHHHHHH

[3] = biological target: T3, cynomolgus monkey GITR expressed on the cell surface (Macaca fascicularis (cynomolgus monkey)); experiment: flow cytometry, AF647-conjugated antibody on CD4+ CD69+ cynomolgus monkey primary T cells, donor 58945
T3 construct: whole, on cells; also called MfGITR; Jurkat/hCD20/MfGITR cells
Procedure: FIG. 7 depicts antibody binding to CD69+ cynomolgus monkey primary T-cells. Primary cynomolgus monkey T-cells from 4 separate donors were stimulated in vitro with anti-CD2/anti-CD3/anti-CD28-coated beads. Cell-surface binding of AF647-conjugated mAb1 and AF647-conjugated IgG1 isotype control at a range of concentrations (8 pM to 200 nM) on CD69⁺ and CD69⁻ cynomolgus monkey primary CD4⁺ and CD8⁺ T-cells was detected using flow cytometry. Fluorescence intensity was plotted as geometric MFI. Mf, Macaca fascicularis (cynomolgus monkey)
Peripheral blood mononuclear cells (PBMC) were isolated from human or cynomolgus monkey whole blood (4 donors each) using density centrifugation through Ficoll-Paque PLUS in SepMate tubes (for human PBMC) or 50 mL conical tubes (for cynomolgus monkey PBMC) and transferred to a fresh conical tube for incubation in Red Blood Cell (RBC) Lysis Buffer. […] After 4 days, activation beads were removed from the culture using a MACSiMAG Separator, and cells were collected and counted.
Flow cytometry was used to evaluate mAb1 binding to human or cynomolgus monkey T-cells in activated PBMC. […] Data were analyzed with Flowio software. For EC₅₀ determinations, measured geometric MFI values were analyzed using a 4-parameter logistic equation over a 12-point response curve with GraphPad Prism.

[4] = biological target: T3, cynomolgus monkey GITR expressed on the …; experiment: cell-based or functional assay
[5] = biological target: T4, human GITR expressed on the cell surface (human, UniProt Q9Y5U5 26-241); experiment: cell-based or functional assay
T4 sequence: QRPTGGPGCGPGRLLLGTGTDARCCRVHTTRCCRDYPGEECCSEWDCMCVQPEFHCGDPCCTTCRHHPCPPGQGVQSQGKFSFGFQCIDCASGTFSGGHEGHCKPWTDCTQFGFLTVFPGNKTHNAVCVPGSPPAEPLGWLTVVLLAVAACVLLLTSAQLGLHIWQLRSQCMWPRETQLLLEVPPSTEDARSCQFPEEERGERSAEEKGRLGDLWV

[6] = biological target: T1, Jurkat/hCD20 cells (human CD20, no …); experiment: flow cytometry on Jurkat/hCD20 cells
Procedure: FIG. 5A, FIG. 5B, and FIG. 5C depict cell-surface binding of mAb1 and IgG1 isotype control at a range of concentrations (18 pM to 300 nM) on Jurkat/hCD20 (FIG. 5A), Jurkat/hCD20/hGITR (FIG. 5B), and Jurkat/hCD20/MfGITR (FIG. 5C) cells. Binding was detected using an Alexa647-labeled anti-human IgG by flow cytometry. Fluorescence intensity was plotted as geometric MFI. h, Human; Mf, Macaca fascicularis (cynomolgus monkey).
as §1, with “μg/mL.” for “μg/mL. Cells were then stained with LIVE/DEAD Fixable Green Dead Cell Stain according to the manufacturer's instructions.”

B1: mAb1 (antibody, human IgG1, kappa, V domains shown)
VH: QVQLQESGPGLVKPSETLSLTCIVSGGSISGYFWNWIRQPPGKGLEWIGYIYYSGTTIYNPSLKSRFTISLDTSKNQFSLKLTSVTAADTAVYYCARESYDPSPRYFDHWGQGTLVTVSS
VL: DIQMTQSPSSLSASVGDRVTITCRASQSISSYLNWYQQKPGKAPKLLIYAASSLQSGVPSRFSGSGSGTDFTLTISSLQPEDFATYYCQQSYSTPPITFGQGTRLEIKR
notes: Human IgG1; N101D variant of CompAb1; also called N101D Variant; N101D
With B1 the “Fold Binding” value [1] was 1.06 fold, the IC50 [2] was 6.66 nM and the “EC50 (read off the curve)” value [3] was ~4 nM. For the same binder, the “EC50, ADCC against Jurkat/hCD20/MfGITR, Donor 6500V NK cells” value [4] was 10.8 pM, the “EC50, ADCC against Jurkat/hCD20/MfGITR, Donor 6700R NK cells” value [4] was 12.1 pM and the “EC50, ADCC against Jurkat/hCD20/hGITR, Donor 6500V NK cells” value [5] was 12.2 pM. The “EC50, ADCC against Jurkat/hCD20/hGITR, Donor 6700R NK cells” value [5] was 13 pM and the binding result [6] was “no binding (tested: 18 pM to 300 nM)”.
